In this assay the target is Fbw7α (UniProt Q969H0). Description: anti-HA co-IP, anti-FLAG blot. The following applies: reference: wild-type HA-SV40 LT; sites T701.

As for “SV40 LT (from UniProt P03070) HA-SV40 LT T701A”, the “binding against the reference” value is listed as “lost”.
